According to patent publication US20210139964, “RNA TAGGING SYSTEM FOR VISUALIZATION OF SINGLE MRNA MOLECULES” (ALBERT EINSTEIN COLLEGE OF MEDICINE, published 2021):
Read-outs that look alike come from different tables or passages of the source.

Key:
[1] = target: MS2 coat protein (literature) (Enterobacteria phage MS2) (UniProt P03612); details: CITED Lowary and Uhlenbeck 1987, cited from earlier work
MS2 coat protein (MCP) = MS2 coat protein (MCP) (Enterobacteria phage MS2, UniProt P03612 P03612:2-130); test: EMSA; sub-nanomolar; exact value only in figure; about 10-fold tighter than wt (p109); 10 mM Tris, 100 mM NaCl, 0.1 mM EDTA, tRNA, heparin, room temperature, 3 h; details: tags: MBP-TEV N-terminal, C-terminal 6xHis (plasmid pET336, E. coli Rosetta2); chain copies: 2 (inferred); label: 5' fluorescein; hairpin
Chain of MS2 coat protein (MCP) (P03612 2-130, one chain of several): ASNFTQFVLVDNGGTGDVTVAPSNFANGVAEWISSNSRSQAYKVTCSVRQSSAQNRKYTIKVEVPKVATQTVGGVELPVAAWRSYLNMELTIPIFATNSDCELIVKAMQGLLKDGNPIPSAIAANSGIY
Experimental: Design of a new MBS-MCP system faithfully recapitulating mRNA kinetics —We considered four variables that could influence the ability of the MS2 array to block degradation by […] when MCP is bound. First, the loop sequence can affect the affinity of MCP for the stem. […] The current MBSV5 and MBSORF versions have a U to C change in position −5 of all loops (FIG. 2A-C). We compared the high affinity C-variant loops to the wt-loops (FIG. 2D). The affinities of the MBS-MCP binding were analyzed by electrophoretic mobility shift assay (EMSA). As a control, we used the original loop sequence from the bacteriophage with a U or a C at position −5. In addition, C or U variants were generated for two MS2 loops (Loop1 and Loop2), each of them with a different stem sequence (FIG. 2D). Apparent equilibrium dissociation constants (Kd) were extracted from plots of MCP bound versus free (FIG. 2E-G).
Complexes were monitored and quantified by EMSA as previously described (Chao et al., 2008). In brief, 100 pM RNAs were incubated at room temperature for three hours with 2 fold dilutions of MCP in 10 mM Tris, 100 mM NaCl, 0.1 mM EDTA, 0.01 mg/mL tRNA, […] heparin and 0.01% IGEPAL CA630. Complexes were then run using 5% native PAGE in 0.5×TBE and visualized using the Typhoon 9400 variable mode laser scanner (GE Healthcare).

Chain of MS2 coat protein (literature) (Enterobacteria phage MS2) (P03612 2-130): as the sequence (P03612 2-130, one chain of several) above

## MS2 wt operator loop (literature)
[1]; Valegard et al.
  Kd: 10 nM

## MS2 C-variant operator loop (literature)
[1]; dissociation about 90 times slower than wt
  Kd: 1 nM

## ACAUGAGGAUCACCCAUGU (ssRNA) [MS2 C-variant stem loop]
MS2 coat protein (MCP)
  Kd: < 1 nM
